Assay results reported in patent US20230374144A1 (STAIDSON BEIJING BIOPHARMACEUTICAL, published 2023).
Like-named read-outs stand apart in the source and are kept apart here.

Experiments:
[1] = target: T1, human IL-4Rα on cells (human, UniProt P24394 26-825); assay: cell-based or functional assay
[2] = target: T2, IL-4R with mouse Fc-tag (human, UniProt P24394 26-232); assay: competitive ELISA: antibody dilutions with 0.5 µg/mL IL-4R-mouse Fc on plate-captured biotinylated IL-4, anti-mouse-Fc-HRP
T2 construct: not shown: mouse Fc-tag
Procedure: Competitive ELISA: The second assay was designed to identify the anti-IL-4Rα antibodies that were capable of inhibiting the binding of hIL-4 to hIL-4Rα, as measured by competitive ELISA. Briefly, a 96-well plate was coated with 100 μL, 2.5 μg/mL SA (Streptavidin) solution, and incubated overnight at 4° C., followed by washed with TBST. Biotinylated IL-4 with the final concentration of 2 μg/mL was added into the plate and incubated at 37° C. for 1 hour. Then the plate was washed with TBST. The anti-IL-4Rα antibody samples were first diluted to 10 μg/mL, and 1004, of the sample was added to the first row of wells. 10 μg/mL anti-IL-4Rα antibody samples were then serially diluted at a 1:2 ratio and added to each of the remaining rows of wells. 504 of 0.5 μg/mL IL-4R with mouse Fc-tag was added to each well. After incubating for 1 hour at 37° C., the wells were washed with TBST 6 times. 100 µL of anti-mouse-Fc-HRP (1:10,000) was then added to each well and incubated for 1 hour at 37° C. The wells were washed with TBST 6 times before adding 1004/well of TMB, and incubated for 5-10 minutes at 37° C. 2M H₂SO₄ was used to stop the reaction. The ELISA results (OD450) were read, and the binding curves were generated by GraphPad Prism 5 software (GraphPad Software). Reference antibody Dupilumab (Regeneron, anti-IL-4Rα antibody) and AMG317 (Amgen, anti-IL-4Rα antibody) were used as positive controls, Human IgG4, kappa Isotype Control (Cat #HG4K, Sino Biological Inc.) was used as negative control, abbreviated as Human IgG4 in FIG. 1.

[3] = target: T1, human IL-4Rα on cells; assay: cell-based or functional assay; remark: listed apart in the source
[4] = target: T1, human IL-4Rα on cells; assay: cell-based or functional assay; remark: listed apart in the source
[5] = target: T1, human IL-4Rα on cells; assay: cell-based or functional assay; remark: listed apart in the source
[6] = target: T1, human IL-4Rα on cells; assay: cell-based or functional assay; remark: listed apart in the source
[7] = target: T1, human IL-4Rα on cells; assay: cell-based or functional assay; remark: listed apart in the source
[8] = target: T1, human IL-4Rα on cells; assay: cell-based or functional assay; remark: listed apart in the source
[9] = target: T1, human IL-4Rα on cells; assay: cell-based or functional assay; remark: listed apart in the source
[10] = target: T1, human IL-4Rα on cells; assay: cell-based or functional assay; remark: listed apart in the source
[11] = target: T3, recombinant human IL-4Rα (extracellular domain, tagged) (human, UniProt P24394 26-232); assay: SPR, Biacore T200; antibody (human IgG4) on the sensor chip, human IL-4Rα at 0.625-12.5 nM
T3 construct: it is written second here only for want of that; also called hIL-4Rα; not shown: His-tag or other conventionally used tag
Procedure: The binding affinity of the anti-IL-4Rα antibodies (reformatted as human IgG4) to human IL-4Rα was characterized using Biacore T200 (GE). The full-length anti-IL-4Rα antibodies were stabilized on sensor chip CMS. The affinities for human IL-4Rα at various concentrations were measured. […] Using the SPR technology, the association and dissociation rates were measured, and binding affinity was determined.

AMG317 (antibody)
IC50(nM), neutralization of hIL-13 (4 ng/ml), HEK-Blue IL-4/IL-13 STAT6-SEAP reporter cells [1]: 0.649 nM
IC50 [2]: 0.0891 µg/mL

B1: C27-7-33 (antibody, human IgG4, V domains shown)
VH: EVQLLESGGGLVQPGGSLRLSCAASGFTLSSYAMHWVRQAPGKGLEYVSGISPSGVSTYYANSVKGRFTISRDNPKNTLFLQMSSLRAEDTAVYYCVRVKVKYRGGMDVWGQGTTVTVSS
VL: EIVLTQSPGTLSLSPGERATLSCRASQGISSAYLAWYQQKPGQAPRLLIYGTSRRATGIPDRFSGSGSGTDFTLTISRLEPEDFAVYYCQLYGATSVTFGQGTKLEIK
IC50(nM), neutralization of hIL-4 (1.2 ng/ml), HEK-Blue IL-4/IL-13 STAT6-SEAP reporter cells [3]: 0.0541 nM
IC50(nM), neutralization of hIL-13 (4 ng/ml), HEK-Blue IL-4/IL-13 STAT6-SEAP reporter cells [4]: 0.0343 nM
IC50(nM), inhibition of IL-4 (2 ng/mL) dependent TF-1 cell proliferation [5]: 0.0311 nM
IC50(nM), inhibition of IL-13 (10 ng/mL) dependent TF-1 cell proliferation [6]: 0.0902 nM
IC50(nM), inhibition of TARC release in human PBMCs induced by hIL-4 (32 ng/mL) [7]: 0.916 nM
IC50(nM), inhibition of TARC release in human PBMCs induced by hIL-13 (200 ng/mL) [8]: 0.0576 nM
IC50(nM), inhibition of hIL-4 (1 ng/mL) dependent CD23 upregulation on B cells in human PBMCs [9]: 0.0303 nM
IC50(nM), inhibition of hIL-13 (20 ng/mL) dependent CD23 upregulation on B cells in human PBMCs [10]: 0.179 nM
Kd [11]: 1.01 nM
koff [11]: 0.000134 s⁻¹
kon [11]: 134000 M⁻¹ s⁻¹
IC50 [2]: 0.0582 µg/mL

B2: C27-6-33 (antibody, human IgG4, V domains shown)
VH: EVQLLESGGGLVQPGGSLRLSCAASGFTLSSYAMHWVRQAPGKGLEYVSGISPSGSSTYYANSVKGRFTISRDNPKNTLFLQMSSLRAEDTAVYYCVRSKVRYRGGMDVWGQGTTVTVSS
VL: EIVLTQSPGTLSLSPGERATLSCRASQGISSAYLAWYQQKPGQAPRLLIYGTSRRATGIPDRFSGSGSGTDFTLTISRLEPEDFAVYYCQLYGATSVTFGQGTKLEIK
IC50(nM), neutralization of hIL-4 (1.2 ng/ml), HEK-Blue IL-4/IL-13 STAT6-SEAP reporter cells [3]: 0.0537 nM
IC50(nM), neutralization of hIL-13 (4 ng/ml), HEK-Blue IL-4/IL-13 STAT6-SEAP reporter cells [4]: 0.0446 nM
Kd [11]: 2.12 nM
koff [11]: 0.00017 s⁻¹
kon [11]: 80400 M⁻¹ s⁻¹
IC50 [2]: 0.0781 µg/mL

B3: C27-Y2-Y2 (antibody, human IgG4, V domains shown)
VH: EVQLLESGGGLVQPGGSLRLSCAASGFTLSSYAMHWVRQAPGKGLEYVSGISYSSASTYYANSVKGRFTISRDNPKNTLFLQMSSLRAEDTAVYYCVRVKVRYRGGMDVWGQGTTVTVSS
VL: EIVLPQSPGTLSLSPGERATLSCRASQGVSSAYLAWYQQKPGQAPRLLIYGTSRRATGIPDRFSGSGSGTDFTLTISRLEPEDFAVYYCQLYGSTSVTFGQGTKLEIK
IC50(nM), neutralization of hIL-4 (1.2 ng/ml), HEK-Blue IL-4/IL-13 STAT6-SEAP reporter cells [3]: 0.138 nM
Kd [11]: 5.6 nM
koff [11]: 0.00078 s⁻¹
kon [11]: 139000 M⁻¹ s⁻¹

B4: C27-24-56 (antibody, human IgG4, V domains shown)
VH: EVQLLESGGGLVQPGGSLRLSCAASGFTLSSYAMHWVRQAPGKGLEYVSGISPTSGSTYYANSVKGRFTISRDNPKNTLFLQMSSLRAEDTAVYYCVRVKVRYRGGMDVWGQGTTVTVSS
VL: EIVLTQSPGTLSLSPGERATLSCRASQSVSSAYLAWYQQKPGQAPRLLIYGTSRRATGIPDRFSGSGSGTDFTLTISRLEPEDFAVYYCQLYGASSVTFGQGTKLEIK
IC50(nM), neutralization of hIL-4 (1.2 ng/ml), HEK-Blue IL-4/IL-13 STAT6-SEAP reporter cells [3]: 0.0632 nM
IC50(nM), neutralization of hIL-13 (4 ng/ml), HEK-Blue IL-4/IL-13 STAT6-SEAP reporter cells [4]: 0.0482 nM
Kd [11]: 1.86 nM
koff [11]: 0.000173 s⁻¹
kon [11]: 92700 M⁻¹ s⁻¹
IC50 [2]: 0.0632 µg/mL

B5: C27-47-56 (antibody, human IgG4, V domains shown)
VH: EVQLLESGGGLVQPGGSLRLSCAASGFTLSSYAMHWVRQAPGKGLEYVSGISPTGTSTYYANSVKGRFTISRDNPKNTLFLQMSSLRAEDTAVYYCVRVKGAYRGGMDVWGQGTTVTVSS
VL: EIVLTQSPGTLSLSPGERATLSCRASQSVSSAYLAWYQQKPGQAPRLLIYGTSRRATGIPDRFSGSGSGTDFTLTISRLEPEDFAVYYCQLYGASSVTFGQGTKLEIK
IC50(nM), neutralization of hIL-4 (1.2 ng/ml), HEK-Blue IL-4/IL-13 STAT6-SEAP reporter cells [3]: 0.103 nM
IC50(nM), neutralization of hIL-13 (4 ng/ml), HEK-Blue IL-4/IL-13 STAT6-SEAP reporter cells [4]: 0.0966 nM
IC50(nM), inhibition of IL-4 (2 ng/mL) dependent TF-1 cell proliferation [5]: 0.0509 nM
IC50(nM), inhibition of IL-13 (10 ng/mL) dependent TF-1 cell proliferation [6]: 0.0849 nM
IC50(nM), inhibition of TARC release in human PBMCs induced by hIL-4 (32 ng/mL) [7]: 1.2 nM
IC50(nM), inhibition of TARC release in human PBMCs induced by hIL-13 (200 ng/mL) [8]: 0.0913 nM
IC50(nM), inhibition of hIL-4 (1 ng/mL) dependent CD23 upregulation on B cells in human PBMCs [9]: 0.0814 nM
IC50(nM), inhibition of hIL-13 (20 ng/mL) dependent CD23 upregulation on B cells in human PBMCs [10]: 0.698 nM
Kd [11]: 1.82 nM
koff [11]: 0.000195 s⁻¹
kon [11]: 107000 M⁻¹ s⁻¹
IC50 [2]: 0.0651 µg/mL

B6: Dupilumab (antibody, V domains shown)
VH: EVQLVESGGGLEQPGGSLRLSCAGSGFTFRDYAMTWVRQAPGKGLEWVSSISGSGGNTYYADSVKGRFTISRDNSKNTLYLQMNSLRAEDTAVYYCAKDRLSITIRPRYYGLDVWGQGTTVTVSS
VL: DIVMTQSPLSLPVTPGEPASISCRSSQSLLYSIGYNYLDWYLQKSGQSPQLLIYLGSNRASGVPDRFSGSGSGTDFTLKISRVEAEDVGFYYCMQALQTPYTFGQGTKLEIKR
IC50(nM), neutralization of hIL-4 (1.2 ng/ml), HEK-Blue IL-4/IL-13 STAT6-SEAP reporter cells [3]: 0.165 nM
IC50(nM), neutralization of hIL-13 (4 ng/ml), HEK-Blue IL-4/IL-13 STAT6-SEAP reporter cells [4]: 0.136 nM
IC50(nM), inhibition of IL-4 (2 ng/mL) dependent TF-1 cell proliferation [5]: 0.253 nM
IC50(nM), inhibition of IL-13 (10 ng/mL) dependent TF-1 cell proliferation [6]: 0.301 nM
IC50(nM), inhibition of TARC release in human PBMCs induced by hIL-4 (32 ng/mL) [7]: 0.63 nM
IC50(nM), inhibition of TARC release in human PBMCs induced by hIL-13 (200 ng/mL) [8]: 0.0323 nM
IC50(nM), inhibition of hIL-4 (1 ng/mL) dependent CD23 upregulation on B cells in human PBMCs [9]: 0.119 nM
IC50(nM), inhibition of hIL-13 (20 ng/mL) dependent CD23 upregulation on B cells in human PBMCs [10]: 2.8 nM
IC50 [2]: 0.0838 µg/mL
